# Reference: patent US20250034594A1, “RNA-GUIDED GENOME RECOMBINEERING AT KILOBASE SCALE” (THE BOARD OF TRUSTEES OF THE LELAND STANFORD JUNIOR …, priority 2021, published 2025)
# B1: SSAP_185: SEQ ID NO: 354; Pirellula sp. SH-Sr6A (protein, listed as Pirellula sp.)
# chain: SEATKEAKPETAIAKKPNGIKDWLKSDALKTQIASVAPKHMAPERVMRIALNAVSRTPKLADCTPESFMRCLLDLSSWGLEPDGRHAHLIPYGTECTLVLDYKGLVTLAYRSGWVKKIHADVVFEGDIFVYSLGTVCQHIPWEFRDDANKPEHKGHFRAAYCVVTMADGIEKHEVMTASEIDAIKAKSRSGNSGPWKDHYTEMAKKTVYRRASKWLPLSPEQADAMERDDDRIIDAVSVAVTQRLSKAAMPLIGANETGDTE
# B2: SSAP_33: SEQ ID NO: 202 (protein)
# chain: TTNQVVTHKNFFNAPNVQKSFDDVWKGAGVQFATSILSVIQGNASLKSASNESIMTSAMKAAVLNLPIEPSLGRAYLVPYKGQVQFQLGYKGLIELAQRSGKYKSINAGPVYKSQFVSYDPLFEELTLDFTQPQDEVIGYFASFSLLNGFRKLTYWTKAEVEAHGKKFSKTFGNGPWKTDFDAMARKTVLKHILSIYGPLSVEMQTGMQNDESENDNATRDIKTAEPVNADQQLLEDLMNVDTETGEILEEVSELKDNGELDLKYEDPNAR
# B3: SSAP_124: SEQ ID NO: 293; Clostridium sp. AM58-1XD (protein, listed as Clostridium sp.)
# chain: SVDVKNELEKRAAGTVNPAVKLTKNMTIVDMVRALEPEIKRALPTILTPERFMRMALSAINNTPELADCTPMSFIAALMNAAQLGMEPNTPLGQAYLIPYKNKGTLECQFQIGYKGLIDLAYRTGLIQVIQAQTVREFDSFEYQYGLDSRLTHRPGDGERGEITYIYGLFKLTNGGYGFEVSNKADMDAFAEKYSKSFGSRFSPWKENYEDMAKKTVIKRALKYAPVSSDFQKALSMDETIKSELSIDMSEIRNECQVEASGQEGAA
# B4: SSAP_303: SEQ ID NO: 472; Paenibacillus sp. BK033 (protein, listed as Paenibacillus sp.)
# chain: AANTQLITIHNNLEKLIEAKKDAMPQGFNKTRFIQNCMTVLQDTYGIEKCEPTTVARTLLKGAFLGLDFFNKECYAIPYGASMNFQTDYKGERKLAKKYSVRKVKDIYAKLVRAGDVFEENITDGQQTIQFAPVPFNNGDIVGAFAVVLFHDGGMLYETMSIAEMEHIKENYSKKSKDTGKFSKAWEVSTGEMYKKTVLRRLCKNIELDFDTIEQARAFEDAADVDFNKKTAPQQTSPLNVVEAEYEVVNDGSATEAQSE
# B5: SSAP_177: SEQ ID NO: 346; Geomicrobium sp. JCM 19055 (protein, listed as Geomicrobium sp.)
# chain: GYKGMIDLARRSGHIKSIYAHTVHANDEFEYELGLEPKLVHKPATGDRGNMEYAYAVAHFVDGGYQFEVFSHHDIEQVKKRSKAGNFGPWKTDYEEMAKKTVVRRMFKYLPISIEIQQHASQDETVRRDITEEAEKVDNIIDLPNYEDPNNIDVPDEEQDEQKDEKQKQQGSAEEIALDFK
# B6: SSAP_146: SEQ ID NO: 315; Mobilisporobacter senegalensis (protein, listed as Mobilisporobacter senegalensis)
# chain: KDIKSALEKKVDKQDVKLTKSMSITDMIKALEPEIKKALPSVITPERFTRMALSAVNNTPKLAECSQMSFLAALMNAAQLGLEPNTSLGQAYLIPYQNKGKLECQFQLGFKGMIDLVYRNEKVQTIQAHCVYEEDYFEYELGLDSKLAHKPALANRGKMILVYAFFKLENGGFGFEVMSKEDIDIHALKYSKGYSSQYSPWKSNYEDMAKKTVIKKVLKYAPLKIDFQRAISVDETVKAEISIDMSEVQNEEIIDGQCTDVGEIEEK
# B7: SSAP_83: SEQ ID NO: 252 (protein)
# chain: TLQAVCPTQDKAVESQLDQTKFELIKRTICKGTTDDEFQLFIHACKRTGLDPFMRQIFAVKRWDSAERREVMTIQTGIDGYRLIADRTGRYAPGRDAEFGYDAHGGLRWAKAYVKKMTPDGHWHEISATAFWTEYVQTTKDGRPTVFWMKKGHVMLSKCAEALALRKTFPAELSGIYTQEEMAQTMSLPDTKGDSQTIGSDKAYEIERSIDNDPEFKTQLLTRLQRAFGCKSFSDLPQDQFKNVKKVIENHQIKEKIA
# B8: SSAP_118: SEQ ID NO: 287; Kribbella albertanoniae (protein, listed as Kribbella albertanoniae)
# chain: ATADSVREELARSKEVERTQPKASNADNVIGLINRSLPEIAKALPGHVKPERIARIATTAVRVTPKLADCTQASFLGALLTAAQLGLEPNTPTGEAYLLPFGRNVQLIIGYRGYIKLANQSGQVRNIMAMTVYENDHFDYKYGSNPFLEHTPTLGQDPGPVKCWYACATFTNGGTNFVVLDKFKVEGYRARARSKDDGPWVTDYDAMARKTCIRRLAPYLPMSVELAQAMQVDEEVTAFTPGVSDPEVLATLAGVDTGTGEVQQ
# B9: SSAP_241: SEQ ID NO: 410; Antribacter gilvus (protein, listed as Antribacter gilvus)
# chain: SADVVIRQHATELTSVLPSHLAEKGDGWLNAAVAAVRKDRNLWNAANSDPGAVMNALAEAARLGLQPGSKEYYLTVRGGKVLGIVGYQGEIELMYRAGAVSSVIVEPVFERDGFEYTPGVDDRPKHRIDWDADDRGPIRLAYAYAVMKDGAVSKVVVVNKTRIRRAKDASATAGKSHSPWTSDEVAMWMKTAAHDLAKWVPTSAEYIREQLRAVKEVEAEPARASDPRPEPVHIVEAQILDEDPFPNAPEDGAA
# B10: SSAP_269: SEQ ID NO: 438; Candidatus Parcubacteria bacterium (protein)
# chain: TEYKRPQQPEQTKMLSAKLNQAGAPNKVSSFDVQLRDWFKKHSRKMQTLAGSKEEANKIITSLIFVAQRNPKLMTCTMESIGECLMQSAQLKLYPGPLQECAYVPFGNRATFMPQYQGLCKLAYNSGVVRSIATEVVYANDLFEFELGTNAYLRHVPTLSDNRGERIAAWCVVKTTHGEVIIVKPISFIEGIRKRSPAGNKKDSPWNTSDDDYDAMARKTVLKQALKTIPKSSDLAAAIQVDNAVESGSVDNVVTHIEPVTDPTPEETKE
# modifications: Candidatus Parcubacteria bacterium
# B11: SSAP_77: SEQ ID NO: 246 (protein)
# chain: TNNQLVEAKGDFLTNPQLLNSGIIRKYLDPQGKASDEELAYFIAQAKAQNLNPFTKEIYFIKYGTQPAQIVTAKSAFEKKADSHPQFDGKEAGVIYLLDGEIKYSKGAFIPKGAEILGGWAKVYRKDRTYPTETEVSFEEYDNSKIRARVKELTQQGKDVTYPVMNSYGKPIGENNWDTMPCVMIRKVALVSAYREAFPAELGASYEADEIQLDNTPKDITPQENREDVIARKMAQIEQFNKEQAHTDPEPTQTEEPIQGELLDGELEY
# B12: SSAP_279: SEQ ID NO: 448; Dorea sp. 42_8 (protein, listed as Dorea sp.)
# chain: AVNNSLAKRDQSMKLSVYLQNDAVKKQINQVVGGKNGTRFISSIVSAVQSTPALQECTSPSIVNAALLGEALNLSPSPQLGQFYMVPFDNRKKGCKEAQFQLGYKGYIQLAERSGYYKKLNVLAIKEGELIRYDPLDEEIEVELIDDDVIREETPAMGYYAMFEYENGFCIQQKWRSEDFGTFRAGQNSGKGSLEVFFFLVQRF
# B13: SSAP_114: SEQ ID NO: 283; Methylomonas rhizoryzae (protein, listed as Methylomonas rhizoryzae)
# chain: SELLSALNAPETQKPQTLPAMLKQHQPRFKAIAPRDVDVTRFSAALMADVRSNQKLAECNPMTVLGAFIRSTQLGLEPGSQLGQAYFVPFKGECQLVIGYRGMIELAYRSGKVASISARTVYENDVFEWELGTDERITHKPATGDRGALVAVYAMAKLTTGGIHFEVLDLAEIEKAKRASKSSSFGPWKDHFEEMAKKTAIRRLFKYLPVGTDLTRAVALDEKAESGSQQNDIEAETVLDGEFYPAGGGNDG
# B14: SSAP_66: SEQ ID NO: 235 (protein)
# chain: TNQLAHKDFFNTPAVKQKFQEVLNGNERQFTASLLSIVNNNKLLARASNTSIMTAAMKAAVLNLPIEPSLGFAYIVPYGQDAQFQLGYKGLIQLAIRSGQFKAINSGKVYKAQFKSYDPLFETLDIDFTQPEDEVYGYFATFELVNGFKKLTFWTKEQAESHGKRFSKTYAKGPWSTDFDAMAQKTVLKSILSKYAPLSTEMQEGLISDNQTEEVETDPIDVTPKNEDTQTLLSDLMSDEAESETEKV
# Tested on: gene editing with Cas9
# Assay: Screen of 322 new SSAP proteins, gene editing activity with Cas9 (Table 5)
# Format: cell-based
# Set-up: Cas9 with SSAP activity: scale not given here
# Conditions: not given
# In short: (§1)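 Editing screen of 322 newly identified, synthesized SSAPs, each co-used with Cas9 and with dCas9.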
row,Molecule,Cas9 with SSAP activity
1,B1,−1.825
2,B2,1.307
3,B3,−5.698
4,B4,1.686
5,B5,−0.293
6,B6,−0.626
7,B7,−0.905
8,B8,−9.467
9,B9,−0.640
10,B10,−7.746
11,B11,−10.167
12,B12,−2.825
13,B13,−7.755
14,B14,0.370

# Same assay, conditions: normalized
row,Molecule,Cas9 with SSAP activity (normalized)
1,B1,−0.708
2,B2,0.578
3,B3,−1.064
4,B4,2.052
5,B5,−0.508
6,B6,−2.428
7,B7,−1.189
8,B9,−3.561
9,B10,−2.190
10,B12,−3.398
11,B13,−1.412
12,B14,0.407

# Tested on: gene editing with dCas9
# Assay: Screen of 322 new SSAP proteins, gene editing activity with dCas9 (Table 5)
# Format: cell-based
# Set-up: dCas9 with SSAP activity: scale not given here
# Conditions: not given
# In short: as §1
row,Molecule,dCas9 with SSAP activity
1,B1,−8.201
2,B2,−8.362
3,B3,−8.790
4,B4,−9.053
5,B5,−0.179
6,B6,−9.454
7,B7,−9.459
8,B8,−9.467
9,B9,−9.530
10,B10,−9.789
11,B11,−10.167
12,B12,−10.362
13,B13,−10.925
14,B14,−0.205

# Same assay, conditions: normalized
row,Molecule,dCas9 with SSAP activity (normalized)
1,B1,−2.012
2,B2,−1.043
3,B5,−0.069
4,B6,−1.210
5,B7,−1.391
6,B9,−2.720
7,B12,−2.349
8,B14,−0.040

# Tested on: gene editing with Cas9 and dCas9
# Assay: Screen of 322 new SSAP proteins, activity across all experiments (Cas9 and dCas9, Table 5)
# Format: cell-based
# Set-up: scale not given here
# Conditions: not given
# In short: as §1
row,Molecule,Activity across all experiments
1,B1,−5.013
2,B2,−3.528
3,B3,−7.244
4,B4,−3.683
5,B5,−0.236
6,B6,−5.040
7,B7,−5.182
8,B8,−9.467
9,B9,−5.085
10,B10,−8.768
11,B11,−10.167
12,B12,−6.593
13,B13,−9.340
14,B14,0.082
